{"source": "patent US20250340892", "proteins": {"B1": {"name": "neutrophil elastase (protein)", "chain": "IVGGRRARPHAWPFMVSLQLRGGHFCGATLIAPNFVMSAAHCVANVNVRAVRVVLGAHNLSRREPTRQVFAVQRIFENGYDPVNLLNDIVILQLNGSATINANVQVAQLPAQGRRLGNGVQCLAMGWGLLGRNRGIASVLQELNVTVVTSLCRRSNVCTLVRGRQAGVCFGDSGSPLVCNGLIHGIASFVRGGCASGLYPDAFAPVAQFVNWIDSIIQ"}}, "target": "T1, Eglin C (secreted from E. coli W3110 via the MccV system, positive secretion supernatant)", "T1 chain": "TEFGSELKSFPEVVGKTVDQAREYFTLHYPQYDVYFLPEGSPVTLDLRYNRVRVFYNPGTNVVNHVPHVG"}
{"protein": "B1", "values": [{"measurement": "neutrophil elastase (NE) activity assay (fluorogenic substrate, RFU over time)", "result": "NE activity with Eglin C positive secretion was comparable to positive control, which is NE with purified Eglin C (1.5 µM) while NE activity with Eglin C negative secretion showed a similar level with the sample having only NE"}]}
